# Laboratory results taken from the DeepSol protein solubility set.
# Test: soluble on expression in E. coli; label from the status in PepcDB or PDB records
row,Sequence,soluble on expression in E. coli
1,MKTTYNRWWKKKVWFGRKDMSYKVIVDSCGEFTPEMKADGGFEHVALGIQIEDTQWTDDDSLKQEELLLKIAESTSCAKTSCPSPERYMESYHCDAERIYVVTLSAELSGSYNSAVLGKNLYEEEYGEKQIHVFNSRSASVGETLIALKVQQCEKAGMTFEEVVESVECYIEEQHTYFVLENLDTLRKNGRLTGIKSLVAGALNIKPIMGSTPQGTICQKEKARGMKKALVKMADCVAADVVNAGDKILAIAHCNCEERAKEVQRLLKERFAVKSSFIVDTSGISTVYANDGGIIVVV,soluble
2,MKVAGVDEAGRGPVIGPLVIGVAVIDEKNIERLRDIGVKDSKQLTPGQREKLFSKLIDILDDYYVLLVTPKEIDERHHSMNELEAEKFVVALNSLRIKPQKIYVDSADVDPKRFASLIKAGLKYEATVIAEHKADAKYEIVSAASIIAKVTRDREIEKLKQKYGEFGSGYPSDPRTKEWLEEYYKQYGDFPPIVRRTWETARKIEERFRKNQLTLDKFLK,soluble
3,MKVDGKHTRTIWLEADGWTVGTIDQRRLPHDYVVVKLTSSDDAADAIRTMLVRGAPLIGATAAYGMALAMREDASDAGLDAAYAKLVATRPTAINLKWALDEMRRALAPVQPADRVAAAYRRAGEIADEDVAINQAIGASGLKLIEAIAATKKPGERVNVLTHCNAGWLATVDWGTATAPIYQAFDAGIPIHVYADETRPRNQGASLTAWELGHHGVDHTVIPDNTGGHLMQHGLVDIVIVGTDRVTADGDVCNKIGTYLKALAAADNKVPFYVALPSPTIDFTIHDGVREIPIEQREAAEVTDMTGRTNDGRIETVRIVPQGSKVANYGFDVTPARLVTGLITERGVLKADRAALAAAFPERVAQAKELLRASAAALEHHHHHH,soluble
4,MKVDKRIEAVTKFLESLGTVEDYTEDVAVKYRNLILKSYELYENKYNDTVDDSLCIEVWSNGTYVVTNEDLSFDCESEEDLQKLKELFVNTSFYITINELNKVGHKATLSVKAKAKNLRKLGQLIKEYRSCNCKYLKDKVTEIIGDDGRVYLDRISERMD,not soluble
5,MKVEILPFGNMDQWVTREIKESGIIGGNTKKVYAIGPTETIVGAKPYANKGGSPWGTSNVMARVSGITKTNTSVFPETRGDGFCARLDTRMESVKVLGIVDITVLAAGSMFLGTVHEPIKSTKNPNKMLQMGIPFTDRPSAIQFDYKVKMSDRENRIRATGFSKITDVPGKDFPAVILLLQKRWEDAKGNVYAKRIGTMVNYYYHSTDWKNGSKYDIMYGDITKDPAYKAHMMRLQASEYFTVNSKGESVPIHEVAWGEADDVPTHMILQFTSSHGGAYIGSPGNSLYIDNVKLIYLEHHHHHH,soluble
6,MKVGIDAGGTLIKIVQEQDNQRTFKTELTKNIDQVVEWLNQQQIEKLCLTGGNAGVIAENINIPAQIFVEFDAASQGLGILLKEQGHDLADYIFANVGTGTSLHYFDGQSQRRVGGIGTGGGMIQGLGYLLSQITDYKQLTDMAQHGDRNTIDLKVRHIYKDTEPPIPGDLTAANFGHVLHHLDADFTPSNKLAAVIGVVGEVVTTMAITVAREFKTENIVYIGSSFHNNALLRKVVEDYTVLRGCKPYYVENGAFSGAIGALYLEKLEHHHHHH,soluble
7,MKVGINGFGRIGRQVFRILHSRGVEVALINDLTDNKTLAHLLKYDSIYHRFPGEVAYDDQYLYVDGKAIRATAVKDPKEIPWAEAGVGVVIESTGVFTDADKAKAHLEGGAKKVIITAPAKGEDITIVMGVNHEAYDPSRHHIISNASCTTNSLAPVMKVLEEAFGVEKALMTTVHSYTNDQRLLDLPHKDLRRARAAAINIIPTTTGAAKATALVLPSLKGRFDGMALRVPTATGSISDITALLKREVTAEEVNAALKAAAEGPLKGILAYTEDEIVLQDIVMDPHSSIVDAKLTKALGNMVKVFAWYDNEWGYANRVADLVELVLRKGV,soluble
8,MKVIKGLTAGLIFLFLCACGGQQIKDPLNYEVEPFTFQNQDGKNVSLESLKGEVWLADFIFTNCETICPPMTAHMTDLQKKLKAGNIDVRIISFSVDPENDKPKQLKKFAANYPLSFDNWDFLTGYSQSEIEEFALKSFKAIVKKPEGEDQVIHQSSFYLVGPDGKVLKDYNGVENTPYDDIISDVKSASTLK,soluble
9,MKVLPMLLALAVPGLCWAEDPQTFEGAGVVFEVQVEKNLVDIDHRLYRLPNSTVRNGMPSLFQVKPGSVVSYSGTVSQPWSTITDIYIHKQMSEQELAEMIEKEQPRQDGEEQPR,not soluble
10,MKVPEAAISRLITYLRILEELEAQGVHRTSSEQLGELAQVTAFQVRKDLSYFGSYGTRGVGYTVPVLKRELRHILGLNRKWGLCIVGMGRLGSALADYPGFGESFELRGFFDVDPEKVGRPVRGGVIEHVDLLPQRVPGRIEIALLTVPREAAQKAADLLVAAGIKGILNFAPVVLEVPKEVAVENVDFLAGLTRLSFAILNPKWREEMMG,soluble
11,MKVVVIDAGHGAKDSGAVGISRKNYEKTFNLAMALKVESILKQNPKLEVVLTRSDDTFLELKQRVKVAENLKANVFVSIHANSSGSSASNGTETYYQRSASKAFANVMHKYFAPATGLTDRGIRYGNFHVIRETTMPAVLLEVGYLSNAKEEATLFDEDFQNRVAQGIADGITEYLDVK,soluble
12,MKVYIVEHAIGSFAYDEQGKLIDFVLSSKDLGKVVDSLLDNEKGIPLPTTIELIQKIKPEEVVVENEAEIPNLQQLGVKASYEIHNLGSKIFRESLPKIAIETKFASSENDLYSFLYEVSFEYTRRKLRTAASKRDLLAIQAIRAIDDIDKTINLFSERLREWYSIHFPELNKLVEDHELYASIVSKFGHRDEITNTGLDEIGVNKDLSTKILDASKKSIGADITDVDIRSIKMLSDTILELFRIRSELTDYVESVMKEVAPNVTALVGPTLGARLLSLAGSLEDLAKMPASTIQVLGAEKALFRALRKGGKPPKHGVIFQYPAIHTSPRWQRGKIARALAAKLAIAARIDAFSGRFIGDKLNEELKKRIEEIKTKYAQPPPRKPQEQKRKEEERKGKKGGREKRKGRR,soluble
13,MKWLLLITLSLYSFIVQSAPCGLTNVGEQRGTYILKPLSMKGNLTAEKIENTGNIIECADLQETTNAIKVHFLTQNALRFKVGSRHYIINFPFESDGKKNSASREVIL,soluble
14,MKYIVLLGDGMSDEAVKDLDGKTPLQAAKTPHMDVMARRGRIGLAHTVPKGLPPGSDVANLSVFGYDPRTCYTGRSPLEAASMGVQLGPDDVAFRVNLVNLLPTKGTLVMNDYSAGHISTEEGRELIEAIQQQIGDDEFQFYPGVGYRHLMVWRNGKSGMSATPPHDISGKSILDYLPKGEGADKLIYLMNSSQMILNNHPQYRRRLEADKIPANSIWLWGHGKAPRMEPFKEKFGLAGAVISAVDLINGIGIGAGLDVIRVEGATGYLDTNYEGKVQAALEALETHDYVYLHVEAPDEASHSGNLSHKLQAIEDFDARVVGPIMEGIRRFGSFRILCTPDHPTPLRLKTHTGAPVPFIIYDGGESEDDSIAGYDEDSARTSGLVLEEGHRLMELLLERLEHHHHHH,soluble
15,MKYIVNKSHNPAFNIALEAYAFRELVEEDELFILWINEPAIIIGKHQNTIQEINKEYIDEHGIHVVRRLSGGGAVYHDLNNLNYTIISNKTAEGAFDFKTFSQPVIATLADLGVTANFTGRNDIEIDGKKICGNAQAYYKGRMMHHGCLLFDVDMTVLGDALKVSKDKIESKGVKSVRARVTNILNELPEKITVEEFSDKILAKMKETYPDMTEYVLSEDELAKIEQSAKEQFGSWDWTYGKAPEYTIERNVRYPAGKISTFANVENSIIKNLKIYGDFFGIKDVQDIENLLIGCKYEYRDVFERLKTIDTTQYFSRMTVEEVAKAIVS,not soluble
16,MKYKIFASTTPQTEPVLQKLKQVLKGCEAVEKGFDYLFVLGGDGFFVSTVANYNCHNCRVVGINTGHLGFYTSFNEKDLDDNFLQKLQQCHFQRISLLEVSVNGQQHLVLNELAVYTNTAYPINIFIDGEAWEFYRGSGLLIGPRTGSTALAKSAKGAVIFPGIDVLQIIEMNPLLHPNQVTIQSPIILPKETQVEFVVKKAFNPQQFPTFYCDGRKLELPNADTTLALKLVQSTPMFNISLKTQDFINKLKSTFIKQS,soluble
17,MKYKSGIFAAIHETMQGLHDIGAIDKKTMRGFDKSCLTEIKPLSGGDIKAIREKEALSQAAFAIYLNVGKNHVSAWERGVKKPSGAALKLLTIVKNKGIEAIA,not soluble
18,MKYNNHDKIRDFIIIEAYMFRFKKKVKPEVDMTIKEFILLTYLFHQQENTLPFKKIVSDLCYKQSDLVQHIKVLVKHSYISKVRSKIDERNTYISISEEQREKIAERVTLFDQIIKQFNLADQSESQMIPKDSKEFLNLMMYTMYFKNIIKKHLTLSFVEFTILAIITSQNKNIVLLKDLIETIHHKYPQTVRALNNLKKQGYLIKERSTEDERKILIHMDDAQQDHAEQLLAQVNQLLADKDHLHLVFE,soluble
19,MLADKVKLSAKEILEKEFKTGVRGYKQEDVDKFLDMIIKDYETFHQEIEELQQENLQLKKQLEEASKKQPVQSNTTNFDILKRLSNLEKHVFGSKLYD,not soluble
20,MLAFIRFLFAGLLLVISHAFAATVQDEHGTFTLEKTPQRIVVLELSFADALAAVDVIPIGIADDNDAKRILPEVRAHLKPWQSVGTRAQPSLEAIAALKPDLIIADSSRHAGVYIALQQIAPVLLLKSRNETYAENLQSAAIIGEMVGKKREMQARLEQHKERMAQWASQLPKGTRVAFGTSREQQFNLHTQETWTGSVLASLGLNVPAAMAGASMPSIGLEQLLAVNPAWLLVAHYREESIVKRWQQDPLWQMLTAAQKQQVASVDSNTWARMRGIFAAERIAADTVKIFHHQPLTVVK,soluble
21,MLAHLEELKKNIEGDLYFDLTMRTLYATDASVYRELPLAVARPKHKQDVQKIIAFANKYKIGIIPRTAGTSLAGQVVGKGIIVDVSKYFTE,not soluble
22,MLAKDSSLTRTGKGEIVDKDSSFTWYVGTIDEANAFIGLARVFSKDEKVRETLLEIQKMLFLVGAEPSLQKLSEKDLEWMLERVEEFERSVKKPHCFIILEKDESTAFLSVARAVVRRAERQAVRLYREGKARLLVVEWLNKLSYLLYLMILKEGGGDFEEI,not soluble
23,MLAPKAFLDALSGHASRLFNGETPVPRSEFETQFKALLQSGFSKLDLVSREEFDSQMAVLARTRARLEALEAKMAELEGKVGGAEKAGSE,not soluble
24,MLAQCFQPNSSGIYPQEKLPLILETGVSPDYALIDSGNGKKLERYGAYRIIRPEGQALWKPALSEKHWANVDAIFTGNRDEEGVGRWYFPKKPLDETWPLSWNGLSFLGRFTSFRHVGVFPEQDAHWRFMEKQIVNATRPIKLLNLFGYTGIASLISARAGANVTHVDASKKAIAWAKANQEKAGLSDRSIRWICDDAVKFVERELRRQKTYDMILLDPPAYGRGPHGEIWQLFDHLPAMITNCRKLLSDEPLAVVLTAYSIRASFYALHTLMRDEFINLGGTVESGELILREKTTGRALSTSLFSRWIA,not soluble
25,MLARCLAFSYPASTFLIFFLRRRLSHHLWHPTYPRVLNSVRPAFRLAPFVSQKDTDMTVEQPIQVDTLVVGAGQAGVAMSEHLSKLGVPHLVLERSRVAEAWRTGRWDSLVANGPAWHDRFPGMEFDVAADAFPAKDQVADYFEAYARKFNAPIRTGVEVRKVLRNVGRPGFTVETSEGLIQAQRVVAATGPFQRPVIPPIATANDRLTQIHSAEYRNPQQLPEGAVLVVGAGSSGVQIADELQRAGRRVYLSVGAHDRPPRSYRNRDFCWWLGVLGEWDAEIAKPGREHVTIAVSGARGGQTIDFRALAHQGITLVGLTKAFAGEHVTFQADLLDNLARGDENYLALLDAADAYIARNGLDLPLEPEARRRLPDPDCVKQPILELDLQQAGITSIIWATGYAVDFSWLQVDTFSEQGKPLHQRGVSREPGVYFLGLPWLSRRGSSFIWGVWHDAKHVADHIATQRKYQAYSDARPPAATAEAPALNLSPVGAHLEHHHHHH,not soluble
